# Data as given in patent US8609353B2, “Diagnostics and methods for removal and detection of interferents” (Systagenix Wound Management (US), Inc., priority 2007, dated 2013).
# Primed or numbered codes have the meaning given here. * marks the point of attachment. Dabcyl″ = label, CN(C)c1ccc(/N=N/c2ccc(C(=O)*)cc2)cc1
# T1: human neutrophil elastase (Homo sapiens, UniProt P08246)
# T1 sequence (P08246 30-267): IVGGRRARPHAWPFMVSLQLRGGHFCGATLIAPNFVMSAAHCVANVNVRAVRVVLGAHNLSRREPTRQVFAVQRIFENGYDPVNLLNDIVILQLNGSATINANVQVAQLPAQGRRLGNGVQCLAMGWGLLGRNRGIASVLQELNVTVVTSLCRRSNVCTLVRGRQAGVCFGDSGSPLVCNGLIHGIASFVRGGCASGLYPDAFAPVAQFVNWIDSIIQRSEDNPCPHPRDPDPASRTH
# T2: elastase (Homo sapiens, UniProt P08246)
# T2 sequence (P08246 30-267): T1 sequence (P08246 30-267)
# T3: papain (Carica papaya, UniProt P00784)
# T3 construct: purchased DPT Laboratories ACCUZYME
# T3 sequence (P00784 134-345): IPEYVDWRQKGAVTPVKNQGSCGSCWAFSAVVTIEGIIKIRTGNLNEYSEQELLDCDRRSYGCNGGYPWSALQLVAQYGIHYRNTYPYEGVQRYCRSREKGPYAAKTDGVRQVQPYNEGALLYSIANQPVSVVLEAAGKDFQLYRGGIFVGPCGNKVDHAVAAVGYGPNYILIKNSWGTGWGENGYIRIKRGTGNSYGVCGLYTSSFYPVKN
# T4: PAIN1 peptide (NH2-E(Edans) PMPPLCTSMK(Dabcyl)-COOH)
# T4 chain: PMPPLCTSMK
# T5: SAP2 (peptide sequence ETKVEENEAIQK)
# T5 chain: ETKVEENEAIQK
# T6: CPI2 (peptide sequence EGAMFLEAIPMSIPK)
# T6 chain: EGAMFLEAIPMSIPK
# T7: G6 (peptide sequence EAAHQSALQSAK)
# T7 chain: EAAHQSALQSAK
# T8: E8 (peptide sequence EQADALHDQASALK)
# T8 chain: EQADALHDQASALK
# T9: T2 (peptide sequence EVSRRRRRGGK)
# T9 chain: EVSRRRRRGGK
# T10: T3 (peptide sequence KKASEVSRRRRRGGK)
# T10 chain: KKASEVSRRRRRGGK
# B1: papain (in ACCUZYME, a papain-containing debriding ointment, DPT Laboratories) (protein)
# chain: T3 sequence (P00784 134-345)
# B2: human neutrophil elastase (protein)
# chain: IVGGRRARPHAWPFMVSLQLRGGHFCGATLIAPNFVMSAAHCVANVNVRAVRVVLGAHNLSRREPTRQVFAVQRIFENGYDPVNLLNDIVILQLNGSATINANVQVAQLPAQGRRLGNGVQCLAMGWGLLGRNRGIASVLQELNVTVVTSLCRRSNVCTLVRGRQAGVCFGDSGSPLVCNGLIHGIASFVRGGCASGLYPDAFAPVAQFVNWIDSIIQ
# Columns and labels:
# [1] = molecular target: T1, human neutrophil elastase; test: FRET protease assay of bacterial peptide substrates with human neutrophil elastase (cross-reactivity); format: biochemical
# Protocol: Based on the concentration of elastase from human wound fluid, it was determined whether this amount of elastase (0-50 μg/ml) would cause false positives in a protease assay using fluorescence resonance energy transfer (FRET) with peptides that are specific substrates for bacteria (FIGS. 3A-3C). Broad spectrum pathogen peptides such as CPI2 (peptide sequence EGAMFLEAIPMSIPK (referred to herein as SEQ ID NO: 3)) (that reacts with Staphylococcus aureus, Proteus mirabilis, Pseudomonas aeruginosa, Enterococcus faecalis, and Streptococcus pyogenes) were studied. Specific peptides for Pseudomonas aeruginosa (E8 (peptide sequence […] (referred to herein as SEQ ID NO: 4)) and G6 (peptide sequence EAAHQSALQSAK (referred to herein as SEQ ID NO: 5))), Staphylococcus aureus (SAP2 (peptide sequence […] (referred to herein as SEQ ID NO: 6)), Escherichia coli (T2 (peptide sequence EVSRRRRRGGK (referred to herein as SEQ ID NO: 7)) and T3 (peptide sequence KKASEVSRRRRRGGK (referred to herein as SEQ ID NO: 8)) were also studied. The […] were tested with three concentrations of human neutrophil elastase. The peptide substrates were tested in the FRET format with the fluorescent dye Edans attached to one end of the peptide and the quencher Dabcyl attached to the other end of the peptide. In this FRET assay format, amino acids are added to the terminals of the peptides to introduce the FRET assay dye. For example, an “E” is added to the N terminal and a “K” is added to the C terminal. For example, the “E” can be (E-EDANS) and the “K” can be (K-Dabcyl). Cleavage of the peptide substrate by human neutrophil elastase will produce a fluorescent signal.
# [2] = tested on: bacterial proteases; test: HE1 specificity versus bacterial proteases; format: biochemical
# Protocol: (§1) Specificity was tested with 20 μl of a 1:10 dilution of the Affigel beads reacted with 100 μl media control or overnight grown culture of Pseudomonas aeruginosa, Streplococcus pyogenes, Escherichia coli, and Enterococcus faecalis in 200 μl total volume, as described above. The samples were spun down and a 20 μl aliquot measured in 500 μl total volume ABTS over 5 minutes.
# [3] = tested on: Pseudomonas aeruginosa; test: HE1-Affigel bead HRP release specificity test with overnight grown culture; format: biochemical; details: 100 μl overnight grown culture; ABTS over 5 minutes
# Protocol: as §1
# [4] = molecular target: T2, elastase; test: HE1-Affigel bead HRP release spin through assay with elastase; format: biochemical; details: 5 μg/ml elastase, 5 minutes; ABTS substrate over 5 minutes
# Protocol: The peptide was tested for activity by conjugating one end to Affigel 10 beads (BioRad) and the other end to HRP reporter enzyme. The sequence of the HE1 peptide used for this assay was H2N-PFPQANYITYC-OH) (SEQ ID NO: 9). The activity was measured by detecting the release of HRP from the beads in a spin through assay. Testing was performed with 20 μl of a 1:10 dilution of HE1-Affigel beads reacted with 5 μg/ml elastase in 200 μl total volume for 5 minutes.
# [5] = molecular target: T3, papain; test: PAIN1 FRET assay with papain-containing ointment ACCUZYME; format: biochemical; details: 10 μl of 120 mg/ml ACCUZYME, over one hour
# Protocol: (§2) PAIN1 was designed from a high throughput screen. The peptide was tested in the FRET format with the fluorescent dye Edans attached to one end of the peptide and the quencher Dabcyl attached to the other end of the peptide. The sequence of the PAIN1 peptide used for this assay was NH2-E(Edans) PMPPLCTSMK(Dabcyl)-COOH (SEQ ID NO: 10). Cleavage of the peptide substrate by papain will produce a fluorescent signal. The peptide was tested using 5 μl of a 5 mg/ml solution with 10 μl of overnight grown bacterial culture or with 10 μl of 120 mg/ml ACCUZYME®, a papain-containing debriding ointment (DPT Laboratories), in 100 μl total volume. The bacteria cultures tested were Pseudomonas aeruginosa (PA14), Streptococcus pyogenes (grown in BHI and TSB media), E. coli, Enterococcus faecalis, and Serratia marcesens. The relative fluorescence is shown over one hour. […] In particular, the bacteria that appear to cross-react the most with PAIN1 were Pseudomonas aeruginosa and Streptococcus pyogenes.
# [6] = tested on: Streptococcus pyogenes; test: PAIN1 FRET assay with overnight grown bacterial culture; format: biochemical; details: 10 μl overnight grown culture, over one hour
# Protocol: as §2
# [7] = tested on: Pseudomonas aeruginosa (PA14); test: as above; format: biochemical; details: 10 μl overnight grown culture, over one hour
# Protocol: as §2
# [8] = molecular target: T4, PAIN1 peptide (NH2-E(Edans) …)
# [9] = molecular target: T5, SAP2 (peptide sequence ETKVEENEAIQK)
# [10] = molecular target: T6, CPI2 (peptide sequence EGAMFLEAIPMSIPK)
# [11] = molecular target: T7, G6 (peptide sequence EAAHQSALQSAK)
# [12] = molecular target: T8, E8 (peptide sequence EQADALHDQASALK)
# [13] = molecular target: T9, T2 (peptide sequence EVSRRRRRGGK)
# [14] = molecular target: T10, T3 (peptide sequence KKASEVSRRRRRGGK)
molecule,measurement,setting,value
EGAMFLEAIPMSIPK (CPI2-related peptide),cross-reactivity with elastase (fluorescent signal),"[1]; 50 μg/ml of elastase, FIG. 3C",cross-reacted
same,cross-reactivity with elastase (fluorescent signal),"[1]; Five μg/ml of elastase, FIG. 3B",small response
EQADALHDQASALK (Pseudomonas aeruginosa E8-related peptide),cross-reactivity with elastase (fluorescent signal),"[1]; 50 μg/ml of elastase, FIG. 3C",cross-reacted
H2N-PFPQANYITYC-OH (H-PFPQANYITYC-OH) [HE1],cross-reaction with bacterial proteases,[2],not cross react
same,HRP release signal at 405 nm,[3],very minor increase
same,HRP release signal at 405 nm,[4],clear signal
NH2-E(Edans) PMPPLCTSMK(Dabcyl)-COOH ({E(Edans)}-PMPPLCTSMK(Dabcyl″)-OH) [PAIN1],relative fluorescence response,[5],high response
same,relative fluorescence response,[6],lower but significant responses
same,relative fluorescence response,[7],lower but significant responses
B1,"FRET peptide cleavage (relative fluorescence over one hour), 10 ul of 120 mg/ml ACCUZYME",[8],A high response was seen with papain ointment
B2,"FRET peptide cleavage (fluorescent signal), 500 ng/ml elastase",[9],no signal on any of the peptides when tested with 500 ng/ml of elastase
same,"FRET peptide cleavage (fluorescent signal), 500 ng/ml elastase",[10],no signal on any of the peptides when tested with 500 ng/ml of elastase
same,"FRET peptide cleavage (fluorescent signal), 5 ug/ml elastase",[10],Five µg/ml of elastase cross-reacted with the broad spectrum peptide CPI2 (small response)
same,"FRET peptide cleavage (fluorescent signal), 50 ug/ml elastase",[10],50 µg/ml of elastase cross-reacted with both peptides CPI2 and E8
same,"FRET peptide cleavage (fluorescent signal), 500 ng/ml elastase",[11],no signal on any of the peptides when tested with 500 ng/ml of elastase
same,"FRET peptide cleavage (fluorescent signal), 500 ng/ml elastase",[12],no signal on any of the peptides when tested with 500 ng/ml of elastase
same,"FRET peptide cleavage (fluorescent signal), 50 ug/ml elastase",[12],50 µg/ml of elastase cross-reacted with both peptides CPI2 and E8
same,"FRET peptide cleavage (fluorescent signal), 500 ng/ml elastase",[13],no signal on any of the peptides when tested with 500 ng/ml of elastase
same,"FRET peptide cleavage (fluorescent signal), 500 ng/ml elastase",[14],no signal on any of the peptides when tested with 500 ng/ml of elastase
